Consider one molecule from patent publication US20150359847A1, “METHOD AND COMPOSITION FOR CONFERRING NEUROPROTECTION” (BLOOD SYSTEMS RESEARCH INSTITUTE, priority 2014, published 2015).

The subject of assay [1] is mouse model of controlled cortical impact (CCI). The assay can be described thus: Morris Water Maze in CCI TBI mice. The format is in vivo. The source says: The mouse controlled cortical impact (CCI) injury model was used as previously described. In brief, mice were anesthetized with 5% isoflurane and 1:1 O2:N2 mixture. Animals were mounted on a stereotaxic frame and were secured by ear bars and an incisor bar. Anesthesia was maintained with 2.0% isoflurane and 1:1 O2:N2 mixture. A 5-mm-diameter craniotomy was made midway between bregma and lambda on the right side, with the medial edge of the craniotomy 1 mm lateral to midline. Injury was produced using a magnetic impactor mounted at an angle of 110° from the vertical plane. A single impact at a velocity of 4+/−0.2 m/s was used inflict a moderate to severe injury (1.2-1.3 mm impact depth). After injury, the incision was closed. Sham animals underwent identical surgeries except for impact injury. Core body temperature was monitored using a rectal thermometer and maintained at 36.8° C.-37.2° C. with a heating pad throughout the procedure. For treatments, TIMP3 (60.0 μg/kg) or vehicle control (PBS) administration was performed at 2, 24, and 48 hrs after injury via tail vein injections in a total volume of 125 μl. Animal research was performed with approval of the Institutional Animal Care and Use Committee at ISIS Services LLC (San Carlos, Calif., USA). Mice received humane care according to the criteria outlined by the National Research Council's Institute of Laboratory Animal Resources in the “Guide for the Care and Use of Laboratory Animals”. Neurocognitive testing conducted at UT Houston was in compliance with University of Texas Houston Institutional Animal Care and Use Committee.
A modified Morris water maze task was used to assess long-term memory. Mice were trained to find the location of a hidden platform in one day. This was followed by probe at 30 mins following the last trial and another probe 24 hrs later. Mice were given 10 training trials with an inter-trial interval of 15 mins. Each trial was initiated by placing the animal into the water maze at one of four randomly chosen starting positions. The animal was allowed to search for the hidden platform for a period of 1 min, and the time to find the platform recorded. […] At thirty minutes and twenty-four hours following the final training trial, animals were tested in a probe trial in which the platform was removed from the tank and allowed to search for a period of 1 min. Movement within the maze was monitored using a video camera linked to […] software (Ethovision™, Noldus Information Technology, Leesbury, Va.). Measures of memory, including latency to first platform crossing, and number of crossings were recorded.

The test system of assay [2] is phospho-AKT(Ser473) in SH-SY5Y cells. Briefly: Akt (Ser473) phosphorylation in differentiated SH-SY5Y cells (antibody array, western blot, Phosflow). Format: cell-based, human. The procedure:
SH-SY5Y cells were obtained from ATCC (Cat# CRL-2266, Manassas, Va.) and were cultured in DMEM and 10% FBS up to passage 10. For differentiation of SH-SY5Y cells into a neuronal phenotype, cells were first plated in DMEEM+10% FBS for 24 hrs before exchanging media in DMEM+1% FBS 10 μM retinoic acid. Differentiation was performed for 3 days before experimentation. Hippocampal neurons were prepared according to the protocol by Beaudoin et al. (Nature Protocols 2012; 7(9):1741-1754) with minor modifications. In brief, after trypsin digestion of hippocampi isolated from P1 mouse pups single cell suspensions was created by trituration and plated onto Biocoat™ poly-D-lysine coated 12-well plates (Cat#354470, BD Biosciences, San Jose, Calif.). 2 pups were used per well and cell suspensions were incubated for 10 minutes per well for a total of 6 wells. The serial incubation allowed for variation in cell densities applicable to different experiments but also contributed to the reduction in non-neuronal cells. Typically wells 1-2 were pooled for western blotting and wells 4-5 were used for imaging following treatments. After the initial plating cells were incubated for 2 hrs before media was completely exchanged for maintenance media that was supplemented with 1 μM of the anti-mitotic cytosine arabinoside in order to further reduce non-neuronal cells. For western blot, cells were cultured for 7 days before experimentation. Half of maintenance media was exchanged on day 2 and day 5. For morphology experiments, treatments were initiated upon the introduction of maintenance media and was renewed 48 hrs later for a further 24 hrs of treatment. Experiments were terminated by fixation for 20 minutes with 4% paraformaldehyde after which cells were stored at 4° C. in PBS prior to staining protocols.
Pathscan Antibody™ array kits were purchased from Cell Signaling Technologies (Danvers, Mass.). PathScan® RTK signaling antibody array kit (Fluorescent Readout, Cat#7949) and PathScan™ Akt signaling antibody array kit (Fluorescent Readout, Cat#9700) were performed as per manufacturer's instructions. Imaging was performed on a LI-COR Odyssey™ infrared scanner and pixel densities measured by in house LI-COR Image™ suite software.
After experimentation, SH-SY5Y cells were detached from culture ware via trypsin digestion and rapidly mixed with an equal volume of BD cytofix fixation buffer (Cat#554655. BD Biosciences, San Jose, Calif.). After wash steps with PBS cells were permeabilized with BD phosflow Perm Buffer III (Cat#558050. BD Biosciences, San Jose, Calif.) and incubated on ice for 30 mins. After washing in BD stain buffer (Cat#554657. BD Biosciences, San Jose, Calif.) cells were counted and 1×10^6 cells were used antibody incubation. Negative IgG compensation control was obtained using ABC control beads (Cat# A10344. Life Technologies, Grand Island, N.Y.). Antibody incubations were conducted for 30 mins at RT in the dark. Following wash steps the volume was adjusted to 500 μl and results obtained using and LSR II flow cytometer and analyzed using Flowjo™ cytometric analytical software version 8.8.7.
Cell lysates for western blotting were prepared with RIPA buffer (Cat#89900. Thermofisher Scientific, Rockford, Ill.) supplemented with phosphatase inhibitor cocktail 2 (Cat# P5726. Sigma, St Louis, Mo.), phosphatase inhibitor cocktail 3 (Cat# P0044. Sigma, St Louis, Mo.) and complete protease inhibitor (Cat#1862209. Thermofisher Scientific, Rockford, Ill.). Complete homogenization was ensured by brief sonication using a Branson Sonifier 150, (Branson Ultrasonics Corporation, Danbury, Conn.). Protein content was quantified with a Pierce BCA protein assay kit per manufacturer's instructions (Cat#23225. Thermofisher Scientific, Rockford, Ill.).
Lysates was analyzed in conjuncture with the LI-COR Odyssey™ infra-red imaging system. […]
A general note: In western blotting, separated proteins are transferred to a membrane and probed.

The test system of assay [3] is β3-tubulin / dendritic branches in the molecular layer of the dentate gyrus. Briefly: β3-tubulin western blot and staining of ipsilateral hippocampus 7 days post-TBI. Format: in vivo, mouse. Conditions: TIMP3 60 μg/kg IV x3; day 7 post-TBI. The text has this:
The mouse controlled cortical impact (CCI) injury model was used as previously described. In brief, mice were anesthetized with 5% isoflurane and 1:1 O2:N2 mixture. Animals were mounted on a stereotaxic frame and were secured by ear bars and an incisor bar. Anesthesia was maintained with 2.0% isoflurane and 1:1 O2:N2 mixture. A 5-mm-diameter craniotomy was made midway between bregma and lambda on the right side, with the medial edge of the craniotomy 1 mm lateral to midline. Injury was produced using a magnetic impactor mounted at an angle of 110° from the vertical plane. A single impact at a velocity of 4+/−0.2 m/s was used inflict a moderate to severe injury (1.2-1.3 mm impact depth). After injury, the incision was closed. Sham animals underwent identical surgeries except for impact injury. Core body temperature was monitored using a rectal thermometer and maintained at 36.8° C.-37.2° C. with a heating pad throughout the procedure. For treatments, TIMP3 (60.0 μg/kg) or vehicle control (PBS) administration was performed at 2, 24, and 48 hrs after injury via tail vein injections in a total volume of 125 μl. Animal research was performed with approval of the Institutional Animal Care and Use Committee at ISIS Services LLC (San Carlos, Calif., USA). […]

Setting [4] is: long-term probe, TBI+TIMP3 vs TBI alone.

B1: TIMP3: Recombinant tissue inhibitor of matrix metalloproteinase-3, a soluble protein released by MSCs, obtained from Amgen Inc. (protein)
chain: CTCSPSHPQDAFCNSDIVIRAKVVGKKLVKEGPFGTLVYTIKQMKMYRGFTKMPHVQYIHTEASESLCGLKLEVNKYQYLLTGRVYDGKMYTGLCNFVERWDQLTLSQRKGLNYRYHLGCNCKIKSCYYLPCFVTSKNECLWTDMLSNFGYPGYQSKHYACIRQKGGYCSWYRGWAPPDKSIINATDP
Turning to B1, the “ability to learn the platform location during training” value in assay [1] (TBI+TIMP3 vs TBI alone) is “did not significantly differ”. In addition, in assay [1] (TIMP3 60 μg/kg IV x3, long-term memory probe 24 hrs after training, days 8-9), the “total number of correct platform crossings (Morris Water Maze)” value was determined as 1.9±0.4. Moreover, in assay [1] (setting [4]), the “latency to first platform crossing” value was “did not significantly differ” and the “time in the area around the platform (concentric rings)” value is “spent more time in the area around the platform”. For the same molecule, in assay [2] (1 μg/ml TIMP3, 15 mins), the “p-AKT(Ser473), Phosflow cytometry” value is recorded as “activates p-AKT(Ser^473)”; the “p-AKT(Ser473), western blot” value is listed as “activates p-AKT(Ser^473)”; the “phospho-AKT(Ser473), fluorescent antibody signaling array” value was “activates phospho-AKT(Ser^473)”. The “p-AKT(Ser473), Phosflow cytometry” value in assay [2] (1 μg/ml TIMP3, 45 minutes) was “activates p-AKT(Ser^473)”. For the same molecule, in assay [3], the “number of β3-tubulin+ve dendritic branches >50 μm in the molecular layer” value is given as “attenuated by TIMP3 treatment” and the “β3-tubulin protein in ipsilateral hippocampus, western blot” value is listed as “attenuated by TIMP3 treatment”.
